Source: US7078233

Target: T1, 6-methylsalicylic acid synthase (6-MSAS) from Penicillium patulum, P22367
T1 chain: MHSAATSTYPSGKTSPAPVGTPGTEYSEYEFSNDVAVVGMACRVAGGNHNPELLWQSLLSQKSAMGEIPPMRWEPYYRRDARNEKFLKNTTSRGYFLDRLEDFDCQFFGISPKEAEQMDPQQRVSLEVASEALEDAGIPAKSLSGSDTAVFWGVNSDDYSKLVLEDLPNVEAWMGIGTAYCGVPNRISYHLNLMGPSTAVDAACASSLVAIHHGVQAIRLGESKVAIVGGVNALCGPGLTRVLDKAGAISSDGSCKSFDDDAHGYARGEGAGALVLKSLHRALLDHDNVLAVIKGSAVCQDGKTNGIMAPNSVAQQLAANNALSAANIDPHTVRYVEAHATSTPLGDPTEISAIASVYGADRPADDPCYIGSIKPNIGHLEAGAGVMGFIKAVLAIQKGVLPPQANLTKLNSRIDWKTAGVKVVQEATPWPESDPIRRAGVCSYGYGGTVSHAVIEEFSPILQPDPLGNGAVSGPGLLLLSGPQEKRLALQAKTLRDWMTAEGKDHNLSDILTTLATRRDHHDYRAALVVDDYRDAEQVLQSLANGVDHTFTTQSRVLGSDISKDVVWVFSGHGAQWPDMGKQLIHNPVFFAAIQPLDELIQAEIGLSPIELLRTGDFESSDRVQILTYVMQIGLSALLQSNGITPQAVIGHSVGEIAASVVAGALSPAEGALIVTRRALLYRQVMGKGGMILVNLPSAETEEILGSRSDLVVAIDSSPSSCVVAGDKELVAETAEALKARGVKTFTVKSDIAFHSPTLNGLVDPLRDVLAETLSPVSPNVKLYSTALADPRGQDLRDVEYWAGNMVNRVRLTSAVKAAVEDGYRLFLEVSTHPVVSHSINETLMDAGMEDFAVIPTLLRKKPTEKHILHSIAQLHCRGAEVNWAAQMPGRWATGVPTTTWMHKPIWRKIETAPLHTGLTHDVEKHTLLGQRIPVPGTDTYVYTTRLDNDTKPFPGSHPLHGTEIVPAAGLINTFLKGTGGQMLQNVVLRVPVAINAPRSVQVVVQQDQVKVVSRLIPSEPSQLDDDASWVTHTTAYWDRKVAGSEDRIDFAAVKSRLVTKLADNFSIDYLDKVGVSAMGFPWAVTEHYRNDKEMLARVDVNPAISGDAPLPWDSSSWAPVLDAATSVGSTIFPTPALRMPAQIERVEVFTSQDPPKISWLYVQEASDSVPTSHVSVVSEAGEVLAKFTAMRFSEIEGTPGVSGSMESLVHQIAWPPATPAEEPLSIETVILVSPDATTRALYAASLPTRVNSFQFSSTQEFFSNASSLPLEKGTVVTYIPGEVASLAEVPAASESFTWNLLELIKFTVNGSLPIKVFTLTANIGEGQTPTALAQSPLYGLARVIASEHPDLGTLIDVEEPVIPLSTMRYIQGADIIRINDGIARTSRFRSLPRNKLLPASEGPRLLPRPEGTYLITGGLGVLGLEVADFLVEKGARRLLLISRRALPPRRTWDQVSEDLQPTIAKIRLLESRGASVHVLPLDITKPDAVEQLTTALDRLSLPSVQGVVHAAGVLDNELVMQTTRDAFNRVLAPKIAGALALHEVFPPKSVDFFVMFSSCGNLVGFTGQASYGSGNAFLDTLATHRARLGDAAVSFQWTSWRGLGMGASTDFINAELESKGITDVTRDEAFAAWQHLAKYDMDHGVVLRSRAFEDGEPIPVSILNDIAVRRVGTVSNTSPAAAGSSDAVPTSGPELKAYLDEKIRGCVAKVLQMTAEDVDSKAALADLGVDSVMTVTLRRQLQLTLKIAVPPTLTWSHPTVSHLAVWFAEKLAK

B1: Bacillus subtilis surfactin holo ACP synthase (sfp) (protein)
chain: MKIYGIYMDRPLSQEENERFMSFISPEKREKCRRFYHKEDAHRTLLGDVLVRSVISRQYQLDKSDIRFSTQEYGKPCIPDLPDAHFNISHSGRWVICAFDSQPIGIDIEKTKPISLEIAKRFFSKTEYSDLLAKDKDEQTDYFYHLWSMKESFIKQEGKGLSLPLDSFSVRLHQDGQVSIELPDSHSPCYIKTYEVDPGYKMAVCAAHPDFPEDITMVSYEELL
Q: For B1, which “radioactivity from labeled beta-alanine in the 190 kD 6-MSAS band on SDS-PAGE, E. coli SJ16 cotransformed with plasmids 108 (sfp) and 109 (6-MSAS)” value is on record?
A: Its value is “a detectable amount of radioactivity was found in the 190 kD 6-MSAS band”.
